Measured values from IntAct's records for PubMed 16959570.

B1: FK506-binding protein 4 (Saccharomyces cerevisiae), Q06205 (parent)
chain: MSDMLPLATYSLNVEPYSPTPALNFKIPVTIRITMAAIDPEPFDDDKKPSTLRIIKRNPELTRGEYYNQDNNDGLEEDESESEQEADVPKRSVKSKKGKAVEQSESEDSEDENEIDDEFEECVLLTLSPKGQYQQALDITIAPEEDVQFVVTGSYTISLTGNYVKHPFDNSSDSDEDEEDYYSDEESSNGEEEEEEEEEDDEELSSGDDDLDDLVDASDIESRLDELVKKDEKKKNNKKDSKRKHEEDEEESAKPAEKKQTTKKDKKAEKVKDSEESKPKPKTKLLEGGIIIEDRVTGKGPHAKKGTRVGMRYVGKLKNGKVFDKNTKGKPFVFKLGQGEVIKGWDIGVAGMAVGGERRIVIPAPYAYGKQALPGIPANSELTFDVKLVSMK

Variants of: B1
Conditions: with h3_yeast HHT1, P61830

How did the “effect of a mutation on the interaction” value turn out when F323A was run?
The value was “disrupting interaction”.
